From the supplement of paper PMC5998384

Columns and labels:
[1] = test system: HeLa Kyoto; assay: solubility change mitosis vs G1/S (difference of NP-40 vs SDS log2 ratios) (log2 ratio difference); higher = more soluble in mitosis
[2] = test system: HeLa Kyoto; assay: solubility in G1/S (NP-40 vs SDS abundance) (log2 ratio); higher = more soluble; settings: cell cycle stage: G1/S
[3] = test system: HeLa Kyoto; assay: melting temperature (median over replicates), in situ; higher = more thermally stable
[4] = test system: HeLa Kyoto; assay: thermal stability score vs G1/S (z-score of summed log2 fold changes over temperatures); higher = more thermally stable than in G1/S
[5] = cell cycle stage: early G1 (4.5 h after nocodazole release)
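Throughout, for melting temperature (median over replicates), in situ: HeLa Kyoto cells synchronized by double thymidine or nocodazole block, proteins quantified by TMT10plex mass spectrometry, three independent biological replicates.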
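Throughout, for solubility change mitosis vs G1/S (difference of NP-40 vs SDS log2 ratios): synchronized HeLa Kyoto cells (double thymidine block for G1/S, nocodazole release for mitosis), protein amounts in NP-40 versus SDS lysates quantified by mass spectrometry, three biological replicates.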
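Throughout, for solubility in G1/S (NP-40 vs SDS abundance): HeLa Kyoto cells arrested at G1/S by double thymidine block, proteins quantified by TMT10plex mass spectrometry in mild NP-40 versus SDS extracts, three biological replicates.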
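Throughout, for thermal stability score vs G1/S (z-score of summed log2 fold changes over temperatures): synchronized HeLa Kyoto cells, proteins quantified by TMT10plex mass spectrometry, three biological replicates, mitosis taken 0.5 h after nocodazole release, G1/S directly after double thymidine block.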

Sequence of SIRT5 (chain, as listed by the source): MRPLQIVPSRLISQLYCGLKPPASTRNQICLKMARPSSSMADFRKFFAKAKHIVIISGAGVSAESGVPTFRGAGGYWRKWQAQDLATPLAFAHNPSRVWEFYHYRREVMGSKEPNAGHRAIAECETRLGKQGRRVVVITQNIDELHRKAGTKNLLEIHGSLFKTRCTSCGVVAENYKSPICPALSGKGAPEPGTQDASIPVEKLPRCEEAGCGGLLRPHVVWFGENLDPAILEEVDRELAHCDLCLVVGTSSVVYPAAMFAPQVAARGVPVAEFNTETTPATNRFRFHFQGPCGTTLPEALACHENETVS

| Substance | solubility change mitosis (log2) [1] | solubility in G1/S (log2) [2] | melting temperature ([3]; cell cycle stage: G1/S) | melting temperature ([3]; cell cycle stage: mitosis) | thermal stability score [4, 5] | thermal stability score ([4]; cell cycle stage: mitosis) |
| --- | --- | --- | --- | --- | --- | --- |
| MPAGRAARTCALLALCLLGAGAQDFGPTRFICTSVPVDADMCAASVAAGGAEELRSSVLQLRETVLQQKETILSQKETIRELTAKLGRCESQSTLDPGAGEARAGGGRKQPGSGKNTMGDLSRTPAAETLSQLGQTLQSLKTRLENLEQYSRLNSSSQTNSLKDLLQSKIDELERQVLSRVNTLEEGKGGPRNDTEERVKIETALTSLHQRISELEKGQKDNRPGDKFQLTFPLRTNYMYAKVKKSLPEMYAFTVCMWLKSSATPGVGTPFSYAVPGQANELVLIEWGNNPMEILINDKVAKLPFVINDGKWHHICVTWTTRDGVWEAYQDGTQGGSGENLAPYHPIKPQGVLVLGQEQDTLGGGFDATQAFVGELAHFNIWDRKLTPGEVYNLATCSTKALSGNVIAWAESHIEIYGGATKWTFEACRQIN [NPTX1] | -0.119 | 0.224 | 54 °C | 55.4 °C | 3.28 | 3.79 |
| MSEVTRSLLQRWGASFRRGADFDSWGQLVEAIDEYQILARHLQKEAQAQHNNSEFTEEQKKTIGKIATCLELRSAALQSTQSQEEFKLEDLKKLEPILKNILTYNKEFPFDVQPVPLRRILAPGEEENLEFEEDEEEGGAGAGSPDSFPARVPGTLLPRLPSEPGMTLLTIRIEKIGLKDAGQCIDPYITVSVKDLNGIDLTPVQDTPVASRKEDTYVHFNVDIELQKHVEKLTKGAAIFFEFKHYKPKKRFTSTKCFAFMEMDEIKPGPIVIELYKKPTDFKRKKLQLLTKKPLYLHLHQTLHKE [AIDA] | 0.0508 | 0.32 | 50.9 °C | 50.5 °C | -0.484 | -0.48 |
| MGGRVFLAFCVWLTLPGAETQDSRGCARWCPQNSSCVNATACRCNPGFSSFSEIITTPTETCDDINECATPSKVSCGKFSDCWNTEGSYDCVCSPGYEPVSGAKTFKNESENTCQDVDECQQNPRLCKSYGTCVNTLGSYTCQCLPGFKFIPEDPKVCTDVNECTSGQNPCHSSTHCLNNVGSYQCRCRPGWQPIPGSPNGPNNTVCEDVDECSSGQHQCDSSTVCFNTVGSYSCRCRPGWKPRHGIPNNQKDTVCEDMTFSTWTPPPGVHSQTLSRFFDKVQDLGRDSKTSSAEVTIQNVIKLVDELMEAPGDVEALAPPVRHLIATQLLSNLEDIMRILAKSLPKGPFTYISPSNTELTLMIQERGDKNVTMGQSSARMKLNWAVAAGAEDPGPAVAGILSIQNMTTLLANASLNLHSKKQAELEEIYESSIRGVQLRRLSAVNSIFLSHNNTKELNSPILFAFSHLESSDGEAGRDPPAKDVMPGPRQELLCAFWKSDSDRGGHWATEGCQVLGSKNGSTTCQCSHLSSFAILMAHYDVEDWKLTLITRVGLALSLFCLLLCILTFLLVRPIQGSRTTIHLHLCICLFVGSTIFLAGIENEGGQVGLRCRLVAGLLHYCFLAAFCWMSLEGLELYFLVVRVFQGQGLSTRWLCLIGYGVPLLIVGVSAAIYSKGYGRPRYCWLDFEQGFLWSFLGPVTFIILCNAVIFVTTVWKLTQKFSEINPDMKKLKKARALTITAIAQLFLLGCTWVFGLFIFDDRSLVLTYVFTILNCLQGAFLYLLHCLLNKKVREEYRKWACLVAGGSKYSEFTSTTSGTGHNQTRALRASESGI [CD97] | -0.171 | 0.257 | 59.6 °C | 58.4 °C | 0.176 | -0.537 |
| MMGHRPVLVLSQNTKRESGRKVQSGNINAAKTIADIIRTCLGPKSMMKMLLDPMGGIVMTNDGNAILREIQVQHPAAKSMIEISRTQDEEVGDGTTSVIILAGEMLSVAEHFLEQQMHPTVVISAYRKALDDMISTLKKISIPVDISDSDMMLNIINSSITTKAISRWSSLACNIALDAVKMVQFEENGRKEIDIKKYARVEKIPGGIIEDSCVLRGVMINKDVTHPRMRRYIKNPRIVLLDSSLEYKKGESQTDIEITREEDFTRILQMEEEYIQQLCEDIIQLKPDVVITEKGISDLAQHYLMRANITAIRRVRKTDNNRIARACGARIVSRPEELREDDVGTGAGLLEIKKIGDEYFTFITDCKDPKACTILLRGASKEILSEVERNLQDAMQVCRNVLLDPQLVPGGGASEMAVAHALTEKSKAMTGVEQWPYRAVAQALEVIPRTLIQNCGASTIRLLTSLRAKHTQENCETWGVNGETGTLVDMKELGIWEPLAVKLQTYKTAVETAVLLLRIDDIVSGHKKKGDDQSRQGGAPDAGQE [CCT3] | -0.131 | 0.216 | 54 °C | 53.6 °C | 0.0574 | -0.798 |
| MAAALGASGGAGAGDDDFDQFDKPGAERSWRRRAADEDWDSELEDDLLGEDLLSGKKNQSDLSDEELNDDLLQSDNEDEENFSSQGVTISLNATSGMVTSFELSDNTNDQSGEQESEYEQEQGEDELVYHKSDGSELYTQEYPEEGQYEGHEAELTEDQIEYVEEPEEEQLYTDEVLDIEINEPLDEFTGGMETLELQKDIKEESDEEEEDDEESGRLRFKTERKEGTIIRLSDVTRERRNIPETLELSAEAKAALLEFEERERQHKQGRYSSRRGGRRGGPLMCRGVGDQRRESTERGRMKDHRPALLPTQPPVVPQAPPPPPPPPQQQPIRSLFQPQPLQPLLPVQHPHHPSPPQGMHMPPQLETPRMMMTPPPVTPQQPKNIHINPHFKGTVVTPVQVPLLPVPSQPRPAVGPQRFPGPPEFPQHTPGPVPNSFSQPPRLPLQDQWRAPPPPQDRDPFFLGVSGEPRFPSHLFLEQRSPPPPPPPPTLLNSSHPVPTQSPLPFTQPGPAFNQQGQQPVFPRERPVRPALQPPGPVGILHFSQPGSATTRPFIPPRQPFLPGPGQPFLPTHTQPNLQGPLHPPLPPPHQPQPQQPQQQPPPQHQPPHQPPHQPPPQHQPPPQHPPQHPPQHQHHHHHHHLSVPPPPLMPMSQPQFRPHVQTAQPQASSSRMQCPQRQGLRHNTTSQNVSKRPMQQMQPTAPRNSNLRELPIAPSHVIEMSSSRCSATPSAQVKPIVSASPPSRAVAGSRSSQGKTEVKVKPASPVAQPKEEAKTETEFPDEDEETRLYRLKIEEQKRLREEILKQKELRRQQQAGARKKELLERLAQQQQQLYAPPPPAEQEEQALSPSPTNGNPLLPFPGAQVRQNVKNRLLVKNQDVSISNVQPKTSNFVPSSANMQYQGQQMKALKHLRQTRTVPQSQTQPLHKVLPIKPADVEEPAVPQTPRVASIQGRPQDTKPGVKRTVTHRTNSGGGDGPHISSKVRVIKLSGGGGESDGFFHPEGQPQRLPQPPEVGPQPARKVTLTRGGLQQPPHLPAGPHAHSPVPPGIKSIQGIHPAKKAIMHGRGRGVAGPMGRGRLMPNKQNLRVVECKPQPCVVSVEGLSSSTTDAQLKSLLMSVGPIQSLQMLPQQRKAIAKFKEPAHALAFQQKFHRHMIDLSHINVALIVE [RBM33] | -0.145 | -0.022 | 48.8 °C | 50.8 °C | 0.706 | 2.36 |
| MEPLSHRGLPRLSWIDTLYSNFSYGTDEYDGEGNEEQKGPPEGSETMPYIDESPTMSPQLSARSQGGGDGVSPTPPEGLAPGVEAGKGLEMRKLVLSGFLASEEIYINQLEALLLPMKPLKATATTSQPVLTIQQIETIFYKIQDIYEIHKEFYDNLCPKVQQWDSQVTMGHLFQKLASQLGVYKAFVDNYKVALETAEKCSQSNNQFQKISEELKVKGPKDSKDSHTSVTMEALLYKPIDRVTRSTLVLHDLLKHTPVDHPDYPLLQDALRISQNFLSSINEDIDPRRTAVTTPKGETRQLVKDGFLVEVSESSRKLRHVFLFTDVLLCAKLKKTSAGKHQQYDCKWYIPLADLVFPSPEESEASPQVHPFPDHELEDMKMKISALKSEIQKEKANKGQSRAIERLKKKMFENEFLLLLNSPTIPFRIHNRNGKSYLFLLSSDYERSEWREAIQKLQKKDLQAFVLSSVELQVLTGSCFKLRTVHNIPVTSNKDDDESPGLYGFLHVIVHSAKGFKQSANLYCTLEVDSFGYFVSKAKTRVFRDTAEPKWDEEFEIELEGSQSLRILCYEKCYDKTKVNKDNNEIVDKIMGKGQIQLDPQTVETKNWHTDVIEMNGIKVEFSMKFTSRDMSLKRTPSKKQTGVFGVKISVVTKRERSKVPYIVRQCVEEVEKRGIEEVGIYRISGVATDIQALKAVFDANNKDILLMLSDMDINAIAGTLKLYFRELPEPLLTDRLYPAFMEGIALSDPAAKENCMMHLLRSLPDPNLITFLFLLEHLKRVAEKEPINKMSLHNLATVFGPTLLRPSEVESKAHLTSAADIWSHDVMAQVQVLLYYLQHPPISFAELKRNTLYFSTDV [ABR] | -0.111 | -0.0712 | 48.8 °C | 49.1 °C | 0.864 | 1.73 |
| MAALRVLLSCVRGPLRPPVRCPAWRPFASGANFEYIIAEKRGKNNTVGLIQLNRPKALNALCDGLIDELNQALKTFEEDPAVGAIVLTGGDKAFAAGADIKEMQNLSFQDCYSSKFLKHWDHLTQVKKPVIAAVNGYAFGGGCELAMMCDIIYAGEKAQFAQPEILIGTIPGAGGTQRLTRAVGKSLAMEMVLTGDRISAQDAKQAGLVSKICPVETLVEEAIQCAEKIASNSKIVVAMAKESVNAAFEMTLTEGSKLEKKLFYSTFATDDRKEGMTAFVEKRKANFKDQ [ECHS1] | 0.0593 | 0.518 | 52.8 °C | 53.3 °C | -1.11 | -1.89 |
| SIRT5 | -0.233 | 0.419 | 50.9 °C | 50.9 °C | -0.174 | 0.987 |
| METQLQSIFEEVVKTEVIEEAFPGMFMDTPEDEKTKLISCLGAFRQFWGGLSQESHEQCIQWIVKFIHGQHSPKRISFLYDCLAMAVETGLLPPRLVCESLINSDTLEWERTQLWALTFKLVRKIIGGVDYKGVRDLLKVILEKILTIPNTVSSAVVQQLLAAREVIAYILERNACLLPAYFAVTEIRKLYPEGKLPHWLLGNLVSDFVDTFRPTARINSICGRCSLLPVVNNSGAICNSWKLDPATLRFPLKGLLPYDKDLFEPQTALLRYVLEQPYSRDMVCNMLGLNKQHKQRCPVLEDQLVDLVVYAMERSETEEKFDDGGTSQLLWQHLSSQLIFFVLFQFASFPHMVLSLHQKLAGRGLIKGRDHLMWVLLQFISGSIQKNALADFLPVMKLFDLLYPEKEYIPVPDINKPQSTHAFAMTCIWIHLNRKAQNDNSKLQIPIPHSLRLHHEFLQQSLRNKSLQMNDYKIALLCNAYSTNSECFTLPMGALVETIYGNGIMRIPLPGTNCMASGSITPLPMNLLDSLTVHAKMSLIHSIATRVIKLAHAKSSVALAPALVETYSRLLVYMEIESLGIKGFISQLLPTVFKSHAWGILHTLLEMFSYRMHHIQPHYRVQLLSHLHTLAAVAQTNQNQLHLCVESTALRLITALGSSEVQPQFTRFLSDPKTVLSAESEELNRALILTLARATHVTDFFTGSDSIQGTWCKDILQTIMSFTPHNWASHTLSCFPGPLQAFFKQNNVPQESRFNLKKNVEEEYRKWKSMSNENDIITHFSMQGSPPLFLCLLWKMLLETDHINQIGYRVLERIGARALVAHVRTFADFLVYEFSTSAGGQQLNKCIEILNDMVWKYNIVTLDRLILCLAMRSHEGNEAQVCYFIIQLLLLKPNDFRNRVSDFVKENSPEHWLQNDWHTKHMNYHKKYPEKLYFEGLAEQVDPPVQIQSPYLPIYFGNVCLRFLPVFDIVIHRFLELLPVSKSLETLLDHLGGLYKFHDRPVTYLYNTLHYYEMHLRDRAFLKRKLVHAIIGSLKDNRPQGWCLSDTYLKCAMNAREENPWVPDDTYYCRLIGRLVDTMAGKSPGPFPNCDWRFNEFPNPAAHALHVTCVELMALAVSGKEVGNALLNVVLKSQPLVPRENITAWMNAIGLIITALPEPYWIVLHDRIVSVISSPSLTSETEWVGYPFRLFDFTACHQSYSEMSCSYTLALAHAVWHHSSIGQLSLIPKFLTEVLLPIVKTEFQLLYVYHLVGPFLQRFQQERTRCMIEIGVAFYDMLLNVDQCSTHLNYMDPICDFLYHMKYMFTGDSVKEQVEKIICNLKPALKLRLRFITHISKMEPAAVPPQAMNSGSPAPQSNQVPVSLPVTQ [MED23] | -0.141 | -0.217 | 50.5 °C | 51.1 °C | 1.35 | 1.94 |
